In the supplement of paper PMC10567573:

B1: KRT71 (parent)
chain: ELRNVQDVVEDYKKRYEEEINKRT
B2: RAB11A (parent)
chain: AVPTDEARAFAEKNGLSFIETSAL

Variants of: B1
Test: protein stability index of a GFP-peptide fusion (GPS, HEK-293T) (PSI 1-6); higher = more stable
Settings: c terminus: a fixed tail appended
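Also: lentivirally expressed fusions sorted by FACS into six bins by GFP to DsRed ratio, PSI derived from sequencing read proportions per bin multiplied by bin number.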

Protein stability index, by site and new letter:
Y12: R 3.66, D 4.2, P 3.53, Q 4.12, F 3.85, M 4.56, I 3.13, E 2.66, L 3.22, N 4.89, H 4.09, C 4.07, K 3.08
D7: V 3.23, I 2.62, Q 4.58, A 3.68, L 3.54, Y 3.06, H 3.13, N 3.36, S 3.6, P 3.17, E 3.1, C 3.35, F 3.28, M 3.35, K 3.28
Q6: M 3.14, W 3.41, P 4.41, H 3.15, A 3.85, K 3.75, C 2.77, F 4.1, Y 3.18, I 2.54, N 4.58, T 3.4, G 3.36, S 4.01
E1: F 4.14, S 4.07, H 4.05, Q 4.03, G 2.72, L 3.9, C 2.23, N 3.49, K 3.95
E10: C 3.62, V 3.11, H 3.71, K 3.14, T 4.45, A 3.17, Q 3.13, Y 3.26, M 3.57, R 4, N 4.22, I 3.54, S 3.65, F 4.36, P 3.41, W 2.43
V9: L 3.03, Q 3.66, K 3.48, I 3.74, H 4.4, S 4.35, N 3.24, W 4.36, T 3.73, G 4.2, E 4.64, D 4.93, Y 3.62, R 2.95, P 4.21, A 3.69, F 3.49
V5: A 3.8, R 3.22, Y 3.64, I 3.88, E 4.43, D 4.58, S 4.01, F 3.38, N 3.59, W 3.7, M 3.87, C 3.98, K 3.75, H 4.37, Q 4.24, P 5.56, G 3.92
D11: N 3.63, S 3.69, H 3.77, L 3.95, R 3.29, Q 4.23, I 2.82, F 3.01, P 3.44, M 3.31, T 3.63, K 2.82, C 3.98, A 3.55, E 3.5
N4: P 4.67, G 3.65, F 3.11, H 4.45, T 4.08, I 4.37, A 4.38, R 4.48, Y 3.59, S 4.32, M 3.77, C 3.9, E 4.45, W 3.17, D 4.68, K 4.51
R3: Y 3.86, Q 4.13, E 4.15, H 2.78, L 2.37, P 4.1, W 3.47, T 3.35, F 4.32, M 4.14
L2: N 5.02, S 5.01, G 5.65, A 5.76, M 3.99, P 4.96, C 3.53, D 5.94
V8: A 3.37, K 3.43, D 4.42, P 3.67, C 3.77, Q 4.19, S 4.53, M 3.23, N 3.38, E 3.98, L 4.3, H 2.88, F 3.97, W 3.73, I 3.45, G 3.49

Variants of: B2
Test: as above
Settings: c terminus: a fixed tail appended

Protein stability index, by site and new letter:
A23: S 2.79
